Measurements as given in PMC6201271.

Target: UvrDΔCys(A100C) labeled with Cy3 (E. coli) (UniProt P03018)
Assay: AUC

stoichiometry N (MutL dimer per UvrD-Cy3 monomer): 1
Substance: E. coli MutL protein (from UniProt P23367 1-615) (natural protein)
